US20220324971A1 (AKESO BIOPHARMA, published 2022)

What was measured:
human CD47 IgV TEV-His [1] = target: T1, human CD47 IgV TEV-His (human, UniProt Q08722 19-141); test: Fortebio BLI, antibody amine-coupled to AR2G sensor, antigen 3.125-100 nM
T1 construct: range 19-141; Recombinant fusion protein synthesized by Akeso; residue numbers count on NP_942088.1; not shown: his tag

[2] = target: T2, CD47 on the cell membrane surface of human cells (normal human RBCs, Raji, LOVO) (human, UniProt Q08722 19-323); test: flow cytometry on LOVO cells
T2 construct: whole, on cells; also called CD47 on the cell membrane surface of normal human RBCs; CD47 on the cell membrane surface of Raji cells
Experimental: The cell pellets were resuspended in 500 μL of 1% PBSA and counted, and the viability was determined. The cells were transferred to 1.5 mL tubes according to 3.0×10⁵ cells/500 μL/tube, and centrifuged at 5600 rpm for 5 min, and the supernatant was discarded. […] Then 500 μL of 1% PBSA was added, followed by centrifugation at 5600 rpm for 5 min, and the supernatant was discarded. 100 μL of FITC goat anti-human IgG (1:500) was added to each tube, and the mixtures were well mixed and incubated on ice for 30 min in the dark. 500 μL of 1% PBSA was added, followed by centrifugation at 5600 rpm for 5 min, and the supernatant was discarded. 200 μL of 1% PBSA was added to each tube to resuspend the cells, and the suspensions were transferred to flow cytometry tubes and detected by a flow cytometer BD FACSCalibur. The results were analyzed using Flowing software, and curve fittings were performed separately using MFI and sample concentration on GraphPad prism 5 to calculate EC50.

[3] = target: T2, CD47 on the cell membrane surface of …; test: flow cytometry on human RBCs
Experimental: Fresh blood was mixed well with blood buffer (blood dilution ratio of 1:3 after concentration). […] The tubes were each centrifuged at 1550 rpm for 30 min after balancing. The PBMCs in the middle buffy coat layer were pipetted. The blood buffer was added in a volume ratio of cells to blood buffer of 1:4. The resulting mixture was well mixed and centrifuged at 950 rpm for 15 min, and the supernatant was discarded. 20 mL of the blood buffer was added to resuspend PBMCs. The resulting suspension was centrifuged, and the supernatant was discarded. Centrifugation was performed, followed by two washings. […] Centrifugation was performed and the supernatant was discarded. […] 500 μL of 1% PBSA was added to each tube, followed by centrifugation at 5600 rpm for 5 min. The supernatant was discarded. 100 μL of the antibody with a corresponding concentration was added (final concentrations: 300, 100, 10, 1, 0.1, 0.01, 0.001 nM) to each tube, and a Blank (PBSA+ cells) and an isotype control were designed, followed by incubation on ice for 1 h. […] 200 μL of 1% washing buffer was added to each tube to resuspend the cells, and fluorescence signals were detected with FITC channel on a flow cytometer. The results were analyzed using Flowing software, and curve fittings were performed separately using MFI and sample concentration on GraphPad prism 5 to calculate EC50.

[4] = target: T2, CD47 on the cell membrane surface of …; test: flow cytometry competition vs SIRPα-ECD-mFc on LOVO cells
human CD47 IgV TEV-His [5] = target: T1, human CD47 IgV TEV-His; test: Biacore SPR, CD47 IgV-TEV-His amine-coupled to chip, antibody 0.78-12.5 nM, 1:1 model
Experimental: The buffer solution was PBST. […] The antibody and human CD47 were subjected to dissociation for 300 s. The chip was regenerated with 3 M MgCl₂ for 30 s at a flow rate of 30 μL/min. The data were analyzed by 1:1 model fitting to obtain affinity constants. Data were acquired using Biacore Control 2.0 software and analyzed using Biacore T200 Evaluation 2.0 software.

human CD47 IgV TEV-His [6] = target: T1, human CD47 IgV TEV-His; test: competitive ELISA vs SIRPα ECD-hFc-Biotin 0.1 ug/mL on coated CD47 IgV TEV-His (blocking EC50)
Experimental: (§1) Experimental procedures: A microplate was coated with 2 μg/mL human CD47 IgV TEV-His at 50 μL per well and incubated at 4° C. for 16 h. The microplate was washed once and tapped dry, blocked with 1% BSA (in PBS) at 300 μL per well, incubated at 37° C. for 2 h, and washed three times and tapped dry. […] Two duplicate wells were set for the above concentrations, with a final volume of 50 μL per well, and the plate was incubated for 10 min. […] The microplate was washed three times and tapped dry. 50 μL of SA-HRP (KPL, 14-30-00) working solution was added to each well, and the microplate was incubated at 37° C. for 30 min. The microplate was washed four times and tapped dry. 50 μL of TMB chromogenic solution was added to each well for color developing for 5 min at room temperature in the dark, and then the color development was terminated by adding 50 μL of stop solution to each well. Then the microplate was put into a microplate reader immediately, and the OD value of each well in the microplate was read at 450 nm. The data were analyzed and processed by SoftMax Pro 6.2.1.

[7] = target: T2, CD47 on the cell membrane surface of …; test: flow cytometry competition vs SIRPα-ECD-mFc 20 nM on Raji cells
Experimental: Raji cells in the log phase were routinely collected, centrifuged and washed. The cell pellets were resuspended in 1% PBSA and counted, and the viability was determined. The cell concentration was adjusted with 1% PBSA into a suitable range, and the cells were transferred in groups into 1.5 mL tubes at 500 μL per tube, for a total of 0.3 million cells. The cells were centrifuged at 5600 rpm for 5 min, and the supernatant was discarded. The antibody serially diluted was added (final concentrations in descending order: 1, 0.3, 0.1, 0.01, 0.001, 0.0001 nM), and a blank control (100 μL of 1% PBSA+ cells) and an isotype control (human hIgG) were set up, followed by incubation on ice for 30 min. […] 1% PBSA was added, followed by centrifugation at 5600 rpm for 5 min, and the supernatant was discarded. 100 μL of FITC goat anti-mouse IgG (1:500 dilution) was added to each tube, followed by incubation on ice for 40 min in the dark. 500 μL of 1% PBSA was added, followed by centrifugation at 5600 rpm for 5 min, and the supernatant was discarded. 200 μL of 1% PBSA was added to resuspend the cell pellets. Fluorescence signals were detected with FITC channel on a flow cytometer.

[8] = target: T2, CD47 on the cell membrane surface of …; test: flow cytometry on Raji cells
[9] = target: T2, CD47 on the cell membrane surface of …; test: flow cytometry competition vs SIRPα-mFc 20 nM on LOVO cells
Experimental: The cell pellets were resuspended in 1% PBSA and counted, and the viability was determined. The cell concentration was adjusted with 1% PBSA into a suitable range, and the cells were transferred in groups into 1.5 mL tubes at 500 μL per tube, for a total of 0.3 million cells. The cells were centrifuged at 5600 rpm for 5 min, and the supernatant was discarded. The antibody serially diluted was added (final concentrations in descending order: 300, 100, 10, 1, 0.3, 0.1, 0.01, 0.001, 0.0001 nM), and a blank control (100 μL of 1% PBSA+ cells) and an isotype control (human hIgG) were set up, followed by incubation on ice for 30 min. […] 1% PBSA was added, followed by centrifugation at 5600 rpm for 5 min, and the supernatant was discarded. 100 μL of FITC goat anti-mouse IgG (1:500 dilution) was added to each tube, followed by incubation on ice for 40 min in the dark. 1% PBSA was added, followed by centrifugation at 5600 rpm for 5 min, and the supernatant was discarded. 200 μL of 1% PBSA was added to resuspend the cell pellets, and the suspensions were transferred to flow cytometry tubes. Fluorescence signals were detected with FITC channel on a flow cytometer. Curve fittings were performed separately using MFI and sample concentration to calculate EC50.

human CD47 IgV TEV-His [10] = target: T1, human CD47 IgV TEV-His; test: competitive ELISA vs SIRPα ECD-hFc-Biotin 0.1 ug/mL on coated CD47 IgV TEV-His (blocking EC50); remark: listed apart in the source
Experimental: as §1

human CD47 IgV TEV-His [11] = target: T1, human CD47 IgV TEV-His; test: indirect ELISA, coated CD47 IgV TEV-His 2 ug/mL
Experimental: Experimental procedures: A microplate was coated with 2 μg/mL human CD47 IgV TEV-His and incubated at 4° C. for 12 h. The antigen-coated microplate was rinsed 3 times with PBS, and then blocked with 1% BSA in PBS for 2 h. The microplate was rinsed 3 times with PBS. The antibody serially diluted with PBST solution was added into the wells of the microplate, the dilution gradients for the antibody detailed in Table 2. The microplate containing the test antibody was incubated at 37° C. for 30 min, and then washed 3 times with PBST. […] The microplate was washed 3 times with PBST. […] Then the microplate was put into a microplate reader immediately, and the OD value of each well in the microplate was read at 450 nm. The data were analyzed by SoftMax Pro 6.2.1.

[12] = target: T2, CD47 on the cell membrane surface of …; test: flow cytometry on Raji cells; remark: listed apart in the source
Experimental: Raji cells in the log phase were collected, centrifuged, and washed. The cell pellets were resuspended in 1% PBSA and counted, and the viability was determined. The cells were transferred to 1.5 mL tubes according to 3.0×10⁵ cells/500 μL/tube, and centrifuged at 5600 rpm for 5 min, and the supernatant was discarded. 100 μL of the corresponding antibody serially diluted was added to each tube according to the experimental design, and a blank group (PBSA+ cells) and an isotype control (hIgG) group were designed, followed by incubation on ice for 1 h. Then 1% PBSA was added, followed by centrifugation at 5600 rpm for 5 min, and the supernatant was discarded. 100 μL of FITC goat anti-human IgG (1:500) was added to each tube, and the mixtures were well mixed and incubated on ice for 30 min in the dark. 500 μL of 1% PBSA was added, followed by centrifugation at 5600 rpm for 5 min, and the supernatant was discarded. 1% PBSA was added to each tube to resuspend the cells, and fluorescence signals were detected with FITC channel on a flow cytometer. Curve fittings were performed separately using MFI and sample concentration to calculate EC50.

B1: murine antibody 6F7 (antibody, V domains shown)
VH: QVQLQQPGAELVRPGASVKLSCKASGYTFTSYWMNWVKQRPGQGLEWIGMIDPSDSETHNNQMFKDKATLTVDKSSNTAYMHLSSLTSEDSAVYHCARLYRWYFDVWGAGTTVTVSS
VL: NIVMTQSPKSMSMSLGERVTLSCKASEIVGTYVSWFQQKPHQSPKLLIYGASNRYTGVPDRFTGSGSATDFTLTISNVQAEDLADYHCGQSYNFPYTFGGGTKLEIK
notes: Murine hybridoma antibody purified on protein A; also called monoclonal antibody secreted by hybridoma cell line LT012 (CD47-6F7)
Human CD47 IgV TEV-His [1]
  Kd: 0.652 nM
  koff: 0.000256 s⁻¹
  kon: 393000 M⁻¹ s⁻¹

B2: 6F7 H1L1(hG4) (antibody, human IgG4, kappa)
heavy: not shown
light: NIVMTQSPATMSMSPGERVTLSCRASEIVGTYVSWFQQKPGQAPRLLIYGASNRYTGVPARFSGSGSGTDFTLTISSVQPEDLADYHCGQSYNFPYTFGGGTKLEIKRTVAAPSVFIFPPSDEQLKSGTASVVCLLNNFYPREAKVQWKVDNALQSGNSQESVTEQDSKDSTYSLSSTLTLSKADYEKHKVYACEVTHQGLSSPVTKSFNRGEC
notes: Humanized 6F7
[2]
  EC50: 0.02 nM
[3]
  EC50: 0.6 nM
[4]
  EC50: 0.1 nM
Human CD47 IgV TEV-His [5]
  Kd: 0.152 nM
Human CD47 IgV TEV-His [6]
  EC50: 0.194 nM
[7]
  EC50: 0.017 nM
[8]
  EC50: 0.32 nM

B3: 6F7 H1L1(G1M) (antibody, human IgG1, kappa, L234A L235A)
heavy: not shown
light: B2 light
notes: Humanized 6F7; also called 6F7 H1L1(hG1DM)
[9]
  EC50: 0.16 nM
Human CD47 IgV TEV-His [10]
  EC50: 0.274 nM
Human CD47 IgV TEV-His [11]
  EC50: 0.037 nM
[12]
  EC50: 0.013 nM
